This note sets out measurements from article PMC13045352, “Mapping Epidermal Growth Factor Receptor‑1 Sorting Domains in Endosomes with a Calibrated Three-Dimensional Expansion Microscopy Toolkit” (ACS Nano, 2026).

The data set deals with the molecule itself. Briefly: negative-stain transmission electron microscopy; purified nanocages on glow-discharged carbon film-coated grids, stained with uranyl formate; particle widths measured (mean 28.3 nm).

B1: I3-01_60eGFP monomer of the self-assembling 60-subunit nanocage (one N-terminal eGFP per subunit) (other)
chain: GSGGSGGSGGSGGSGKIEELFKKHKIVAVLRANSVEEAKKKALAVFLGGVHLIEITFTVPDADTVIKELSFLKEMGAIIGAGTVTSVEQCRKAVESGAEFIVSPHLDEEISQFCKEKGVFYMPGVMTPTELVKAMKLGHTILKLFPGEVVGPQFVKAMKGPFPNVKFVPTGGVNLDNVCEWFKAGVLAVGVGSALVKGTPVEVAEKAKAFVEKIRGCTEGSGSGSGSGS
notes: linker between the vector's eGFP and I3-01; begins with the BamHI site GGATCC; I3-01 designed nanocage subunit (David Baker's laboratory); C-terminal linker before the stop codon; Printed molecular weight of the monomer 55.72 kDa; also called 60mer decahedral nanocage; source: HeLa cells, transfected, purified from lysate (centrifugation, 1 MDa spin concentrator); also expressed in RPE-1 cells; …
As to B1, the binding result was “binds”.
